Results on 37 variants are retold here after the Human Domainome abundance scans (Beltran et al. 2025).

± gives the uncertainty stated by the source.

B1: Far upstream element-binding protein 1, residues 98 to 169; numbered along this chain, Q96AE4 (parent)
chain: RSVMTEEYKVPDGMVGFIIGRGGEQISRIQQESGCKIQIAPDSGGLPERSCMLTGTPESVQSAKRLLDQIVE

This data set covers variants of B1. As to the kind of experiment: abundance fitness (aPCA) (normalised: wild type 0, dead -1); higher = more abundant; growth selection in yeast, the domain comes from the species named. To be noted: Homo sapiens.
On to RSVMTEEYKVPDGMVGFIIGCGGEQISRIQQESGCKIQIAPDSGGLPERSCMLTGTPESVQSAKRLLDQIVE [R21C], for which the abundance fitness was -0.119 ± 0.21.

As to RSVMTEEYKVPDGMVGFIIGQGGEQISRIQQESGCKIQIAPDSGGLPERSCMLTGTPESVQSAKRLLDQIVE [R21Q], the abundance fitness was 0.046 ± 0.3.

For the variant RSVMTEEYKVPDGMVGFIIGVGGEQISRIQQESGCKIQIAPDSGGLPERSCMLTGTPESVQSAKRLLDQIVE [R21V], the abundance fitness is -0.11 ± 0.21.

Consider RSVMTEEYKVPDGMVGFIIGEGGEQISRIQQESGCKIQIAPDSGGLPERSCMLTGTPESVQSAKRLLDQIVE [R21E], for which the abundance fitness was -0.251 ± 0.28. Consider RSVMTEEYKVPDGMVGFIIGHGGEQISRIQQESGCKIQIAPDSGGLPERSCMLTGTPESVQSAKRLLDQIVE [R21H], for which the abundance fitness was -0.118 ± 0.12. Under RSVMTEEYKVPDGMVGFIIGPGGEQISRIQQESGCKIQIAPDSGGLPERSCMLTGTPESVQSAKRLLDQIVE [R21P] stands -0.027 ± 0.13; under RSVMTEEYKVPDGMVGFIIGSGGEQISRIQQESGCKIQIAPDSGGLPERSCMLTGTPESVQSAKRLLDQIVE [R21S], 0.035 ± 0.14; under RSVMTEEYKVPDGMVGFIIGRGEEQISRIQQESGCKIQIAPDSGGLPERSCMLTGTPESVQSAKRLLDQIVE [G23E], -0.011 ± 0.033. In the case of RSVMTEEYKVPDGMVGFIIGRGLEQISRIQQESGCKIQIAPDSGGLPERSCMLTGTPESVQSAKRLLDQIVE [G23L], the abundance fitness is -0.174 ± 0.03. To RSVMTEEYKVPDGMVGFIIGRGVEQISRIQQESGCKIQIAPDSGGLPERSCMLTGTPESVQSAKRLLDQIVE [G23V] belongs -0.157 ± 0.029.

Take RSVMTEEYKVPDGMVGFIIGRGQEQISRIQQESGCKIQIAPDSGGLPERSCMLTGTPESVQSAKRLLDQIVE [G23Q]: the abundance fitness was -0.062 ± 0.034.

Take RSVMTEEYKVPDGMVGFIIGRGMEQISRIQQESGCKIQIAPDSGGLPERSCMLTGTPESVQSAKRLLDQIVE [G23M]: the abundance fitness was -0.037 ± 0.04. Regarding RSVMTEEYKVPDGMVGFIIGRGAEQISRIQQESGCKIQIAPDSGGLPERSCMLTGTPESVQSAKRLLDQIVE [G23A], the abundance fitness is -0.045 ± 0.029. Under RSVMTEEYKVPDGMVGFIIGRGWEQISRIQQESGCKIQIAPDSGGLPERSCMLTGTPESVQSAKRLLDQIVE [G23W] stands -0.101 ± 0.031; under RSVMTEEYKVPDGMVGFIIGRGCEQISRIQQESGCKIQIAPDSGGLPERSCMLTGTPESVQSAKRLLDQIVE [G23C], -0.101 ± 0.035. Under RSVMTEEYKVPDGMVGFIIGRGPEQISRIQQESGCKIQIAPDSGGLPERSCMLTGTPESVQSAKRLLDQIVE [G23P] stands -0.181 ± 0.033; under RSVMTEEYKVPDGMVGFIIGRGSEQISRIQQESGCKIQIAPDSGGLPERSCMLTGTPESVQSAKRLLDQIVE [G23S], -0.061 ± 0.029. To RSVMTEEYKVPDGMVGFIIGRGREQISRIQQESGCKIQIAPDSGGLPERSCMLTGTPESVQSAKRLLDQIVE [G23R] belongs -0.044 ± 0.024; to RSVMTEEYKVPDGMVGFIIGRGNEQISRIQQESGCKIQIAPDSGGLPERSCMLTGTPESVQSAKRLLDQIVE [G23N], -0.055 ± 0.059; to RSVMTEEYKVPDGMVGFIIGRGHEQISRIQQESGCKIQIAPDSGGLPERSCMLTGTPESVQSAKRLLDQIVE [G23H], -0.159 ± 0.058. Consider RSVMTEEYKVPDGMVGFIIGRGTEQISRIQQESGCKIQIAPDSGGLPERSCMLTGTPESVQSAKRLLDQIVE [G23T], for which the abundance fitness was -0.127 ± 0.038. To RSVMTEEYKVPDGMVGFIIGRGIEQISRIQQESGCKIQIAPDSGGLPERSCMLTGTPESVQSAKRLLDQIVE [G23I] belongs -0.17 ± 0.054; to RSVMTEEYKVPDGMVGFIIGRGFEQISRIQQESGCKIQIAPDSGGLPERSCMLTGTPESVQSAKRLLDQIVE [G23F], -0.179 ± 0.052.

Turning to RSVMTEEYKVPDGMVGFIIGRGDEQISRIQQESGCKIQIAPDSGGLPERSCMLTGTPESVQSAKRLLDQIVE [G23D], the abundance fitness was -0.051 ± 0.045. For RSVMTEEYKVPDGMVGFIIGRGYEQISRIQQESGCKIQIAPDSGGLPERSCMLTGTPESVQSAKRLLDQIVE [G23Y], the abundance fitness was -0.072 ± 0.052. To RSVMTEEYKVPDGMVGFIIGRSGEQISRIQQESGCKIQIAPDSGGLPERSCMLTGTPESVQSAKRLLDQIVE [G22S] belongs -0.1 ± 0.028; to RSVMTEEYKVPDGMVGFIIGRWGEQISRIQQESGCKIQIAPDSGGLPERSCMLTGTPESVQSAKRLLDQIVE [G22W], -0.15 ± 0.032. To RSVMTEEYKVPDGMVGFIIGRDGEQISRIQQESGCKIQIAPDSGGLPERSCMLTGTPESVQSAKRLLDQIVE [G22D] belongs 0.005 ± 0.045; to RSVMTEEYKVPDGMVGFIIGRMGEQISRIQQESGCKIQIAPDSGGLPERSCMLTGTPESVQSAKRLLDQIVE [G22M], -0.129 ± 0.039. To RSVMTEEYKVPDGMVGFIIGREGEQISRIQQESGCKIQIAPDSGGLPERSCMLTGTPESVQSAKRLLDQIVE [G22E] belongs -0.006 ± 0.032; to RSVMTEEYKVPDGMVGFIIGRPGEQISRIQQESGCKIQIAPDSGGLPERSCMLTGTPESVQSAKRLLDQIVE [G22P], -0.151 ± 0.035; to RSVMTEEYKVPDGMVGFIIGRKGEQISRIQQESGCKIQIAPDSGGLPERSCMLTGTPESVQSAKRLLDQIVE [G22K], -0.001 ± 0.037. Take RSVMTEEYKVPDGMVGFIIGRFGEQISRIQQESGCKIQIAPDSGGLPERSCMLTGTPESVQSAKRLLDQIVE [G22F]: the abundance fitness is -0.105 ± 0.041.

In the case of RSVMTEEYKVPDGMVGFIIGRYGEQISRIQQESGCKIQIAPDSGGLPERSCMLTGTPESVQSAKRLLDQIVE [G22Y], the abundance fitness was -0.137 ± 0.045. Under RSVMTEEYKVPDGMVGFIIGRLGEQISRIQQESGCKIQIAPDSGGLPERSCMLTGTPESVQSAKRLLDQIVE [G22L] stands -0.099 ± 0.028. To RSVMTEEYKVPDGMVGFIIGRCGEQISRIQQESGCKIQIAPDSGGLPERSCMLTGTPESVQSAKRLLDQIVE [G22C] belongs -0.103 ± 0.04; to RSVMTEEYKVPDGMVGFIIGRNGEQISRIQQESGCKIQIAPDSGGLPERSCMLTGTPESVQSAKRLLDQIVE [G22N], 0.048 ± 0.047.
